Results as given in US20230174642A1, “AFFINITY-MATURATED ANTI-ASIC1a ANTIBODIES” (SHANGHAITECH UNIVERSITY, priority 2019, published 2023).
Where a chain is given by its changes, count along the chain named.

T1: ASIC1a (Homo sapiens, UniProt P78348)
T1 construct: expressed in transfected cells
T1 sequence (P78348 1-528): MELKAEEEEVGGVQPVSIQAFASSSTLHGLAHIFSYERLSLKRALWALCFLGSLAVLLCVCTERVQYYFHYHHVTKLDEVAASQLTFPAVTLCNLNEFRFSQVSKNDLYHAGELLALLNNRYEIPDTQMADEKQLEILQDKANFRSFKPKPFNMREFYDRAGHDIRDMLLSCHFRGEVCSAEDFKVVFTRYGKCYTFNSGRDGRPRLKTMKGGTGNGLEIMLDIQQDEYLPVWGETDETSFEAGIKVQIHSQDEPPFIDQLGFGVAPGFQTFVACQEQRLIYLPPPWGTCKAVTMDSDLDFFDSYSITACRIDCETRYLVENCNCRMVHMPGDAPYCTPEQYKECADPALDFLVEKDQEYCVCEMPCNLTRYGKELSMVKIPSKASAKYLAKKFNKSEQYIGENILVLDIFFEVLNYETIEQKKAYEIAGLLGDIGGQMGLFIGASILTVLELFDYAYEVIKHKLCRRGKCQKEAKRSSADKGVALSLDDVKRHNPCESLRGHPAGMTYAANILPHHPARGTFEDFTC

T2: recombinant extracellular domain of hASIC1a (hASIC1a-ECD) (human, UniProt P78348 67-427, limits assumed)
T2 construct: extracellular domain; ASIC1a is one splice isoform of it; also called trimeric ectodomain of hASIC1a
T2 sequence (looked up): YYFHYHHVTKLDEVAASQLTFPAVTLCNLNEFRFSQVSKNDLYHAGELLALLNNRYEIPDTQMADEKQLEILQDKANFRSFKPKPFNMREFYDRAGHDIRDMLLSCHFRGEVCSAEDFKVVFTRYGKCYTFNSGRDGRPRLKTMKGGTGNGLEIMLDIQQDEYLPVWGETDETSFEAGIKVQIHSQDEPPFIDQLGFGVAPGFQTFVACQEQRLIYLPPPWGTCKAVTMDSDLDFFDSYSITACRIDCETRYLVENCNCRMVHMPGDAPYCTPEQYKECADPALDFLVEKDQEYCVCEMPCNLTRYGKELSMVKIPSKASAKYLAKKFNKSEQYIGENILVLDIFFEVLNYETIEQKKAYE

B1: ASC06-IgG1: parental (WT) ASIC1a-specific antagonist antibody; VL SEQ ID NO: 2, VH SEQ ID NO: 7, VH-CDR3 DSFYGYSKGD (antibody, V domains shown)
VH: QVQLQQSGGGLVQPGGSLRLSCAASGFTFSSYAMSWVRQAPGKGLEWVSAISGSGGSTYYADSVKGRFTISRDNSKNTLYLQMNSLRAEDTAVYYCAKDSFYGYSKGDWGQGTLVTVSS
VL: QSALTQPASVSGSPGQSITISCTGTSSDVGAYNYVSWYQQQPGKAPKLMIYGVSNRPSGVSNRFSGSKSGNAASLTISGLQAEDEADYYCSSYTSSSTYVFGTGTKLTVLG
modifications: IgG1 constant regions; Amino acid sequence VH of ASC06; Amino acid sequence VL of ASC06
B2: ASC06-03-IgG1 (antibody, V domains shown)
VH: B1 VH with Y104R, S105A, D108S
VL: B1 VL
notes: Full length IgG1
B3: ASC06-02-IgG1 (antibody, V domains shown)
VH: B1 VH with Y102F, Y104R, S105A, D108S
VL: B1 VL
notes: Full length IgG1
B4: ASC06-04-IgG1 (antibody, V domains shown)
VH: B1 VH with Y104R, S105A, D108V
VL: B1 VL
notes: Full length IgG1
B5: ASC06-IgG1 (antibody, V domains shown)
VH: B1 VH
VL: B1 VL
notes: Tested as full length IgG1; also called WT antibody ASC06-IgG1; parental ASC06-IgG1 antibody
B6: ASC06-01-IgG1 (antibody, V domains shown)
VH: B1 VH with F101Y, Y102F
VL: B1 VL
notes: Full length IgG1

target: T1, ASIC1a; experiment: FLIPR-based fluorescent membrane potential (FMP) assay; format: cell-based; conditions: increasing doses, pH 6
Excerpt: A fluorescence-based assay using the FLIPR Membrane Potential Assay Kit (FMP kit) (Molecular Devices) was used for functional characterization of ASC06-IgG1 and the affinity-matured derivatives thereof. Specifically, the role of ASIC1a in acidosis and the effect of the antibodies of current disclosure was probed further. The FMP dye in the kit is a lipophilic, anionic, bis-oxonol dye, which permits a sensitive evaluation of changes in membrane potential with a more rapid response time. Using the FMP kit, a sensitive cell-based assay to detect acid-induced ASIC1a currents was developed using a cell line stably expressing ASIC1a. The ASIC1a-expressing stable cells were seeded in 96-well plates. The cells were treated with different concentrations of ASC06-IgG1. Untreated cells were used as a negative control. ASIC1a was stimulated by inducing acidosis by decreasing the extracellular pH to 6, and the changes in the fluorescent signal of the FMP dye were measured. An isotype control was used as a negative control for binding. […] The assay was applied to detect the efficiency of inhibition of ASIC1a currents by ASC06-IgG1, and affinity-matured derivatives thereof.
Using similar assays, the IC50 values for inhibition of ASIC1a currents were calculated based on the maximal fluorescent intensity of each concentration of antibodies compared to the negative control.

Row | Molecule | inhibition of the fluorescent intensities (ASIC1a-mediated current)
1 | B1 | dose-dependent inhibition

target: T1, ASIC1a; experiment: FLIPR-based assay of ASIC1a-mediated calcium influx; format: cell-based; conditions: increasing doses, pH 6
Description: The calcium influx of the ASIC1a channel was measured using a Fluorescence Imaging Plate Reader (FLIPR) instrument by measuring the fluorescent signal generated by the intracellular calcium indicator dye Calcium 5 (Molecular Devices) in a stable cell line expressing hASIC1a-m Cherry fusion.
The inhibition to calcium influx the affinity-matured ASC06-IgG1 derivative antibodies was also measured using the FLIPR-based assay. Using these assays, the IC50 values were calculated based on the maximal fluorescent intensity of the intracellular calcium indicator dye.

Row | Molecule | inhibition of calcium influx
2 | B1 | dose-dependent inhibition

target: T2, recombinant extracellular domain of …; experiment: SPR, Biacore T200, hASIC1a-ECD immobilized, IgG1 as analyte; conditions: not given
Description: Binding affinities of four affinity-matured antibodies in IgG1 format (ASC06-01-IgG1 through ASC06-04-IgG1) to the recombinant extracellular domain of hASIC1a(hASIC1a-ECD) were measured using the Biacore T200™ (GE Healthcare). The ASC06-IgG1 antibody was used as a positive control. All manipulations were followed by the user guide of manufacturer. Briefly, was hASIC1a was immobilized, and serial dilutions of the indicated antibodies were added as analytes. The analysis of the results were processed in BIA Evaluation Software™.

Row | Molecule | Kd [nM] | koff [s⁻¹] | kon [M⁻¹ s⁻¹]
3 | B2 | 0.12 | 8.2e-05 | 680000
4 | B3 | 0.0125 | 0.000168 | 1.3e+07
5 | B4 | 0.26 | 0.000163 | 620000
6 | B5 | 0.28 | 0.0013 | 4.7e+06
7 | B6 | 0.1 | 0.000997 | 9.7e+06
